Laboratory results: patent US20220370630A1, “TRANSMUCOSAL DELIVERY SYSTEM FOR PHARMACEUTICAL ACTIVE INGREDIENT TO SUBMUCOSAL TISSUE OF BLADDER” (SEIKAGAKU CORPORATION, priority 2019, published 2022)

Tests used:
[1] = Release test: release ratio of API from the derivative in phosphate buffer solution pH 7.4 at 36° C., HPLC; type: physicochemical; settings: phosphate buffer pH 7.4, 36° C.; for Release ratio of API: 5 mg/10 mL; for Release rate: slope of release ratio against time
Method: In Examples pertaining to a release test, a release ratio of a pharmaceutical active ingredient (API) from a chondroitin sulfate derivative and a hyaluronic acid derivative, each of which was not fluorescently labeled was evaluated as follows. […] The release ratio was calculated based on the ratio of peak areas of HPLC corresponding to the amount of API in the derivative and the amount of released API using a size-exclusion chromatography column (TSKgel α, manufactured by Tosoh Corporation). Release ratio (%)=peak area of released API/(peak area of API in each derivative+peak area of released API)×100 Also with respect to the hyaluronic acid derivatives of Comparative Examples 2 to 3, evaluation was performed in the same manner as for Examples.

[2] = Evaluation using rat 2: concentration of TA in the bladder after administration to the lumen of the bladder, LC/MS/MS; type: in vivo; settings: bladder homogenate on day 7 after administration; TA dose 0.8 mg/animal into the bladder; hydrochloric acid-pretreated rat; read-out: Concentration of API (TA)
Method: In both Example and Comparative Example, the dose of TA was set to 0.8 mg/animal.
The pretreatment was performed in the same manner as in the evaluation 1.
One day after the pretreatment, 0.2 mL of each test substance was transurethrally administered into the bladder using a catheter (PE50) under isoflurane inhalation anesthesia and allowed to stay there for 30 minutes.
Seven days after administering the test substance, the animal was laparotomized under isoflurane inhalation anesthesia and exsanguinated and euthanized by cutting the abdominal aorta, and then, the bladder was collected. The bladder was homogenized in a mixed solution of methanol/buffer solution (10 mmol/L ammonium formate buffer solution (pH 6.0):methanol=3:2 (v/v)), and a measurement sample was prepared so that the tissue concentration was 0.05 g/mL.
Subsequently, the amount of TA in the measurement sample was quantitatively determined by an LC/MS/MS analysis under the following conditions using triamcinolone-6-d1 acetonide-d6 as an internal standard substance.

Compound | Release ratio of API ([1]; elapsed time 0 days) | Release ratio of API ([1]; elapsed time 1 day) | Release ratio of API ([1]; elapsed time 2 days) | Release ratio of API ([1]; elapsed time 3 days) | Release ratio of API ([1]; elapsed time 4 days) | Release ratio of API ([1]; elapsed time 5 days) | Release ratio of API ([1]; elapsed time 6 days) | Release ratio of API ([1]; elapsed time 7 days) | Release rate [1] | concentration at 7 days [2] | Release of API (result in words) ([1]; 1 week)
2-Aminoethyl-Diclofenac-Introduced CS [CS-DIC-conjugate] | 0.00% | 0.95% | 2.06% | 3.13% | 4.11% | 5.40% | 6.55% | 7.62% | 1.10%/day | – | –
CC1(C)O[C@@H]2C[C@H]3[C@@H]4CCC5=CC(=O)C=C[C@]5(C)[C@@]4(F)[C@@H](O)C[C@]3(C)[C@]2(C(=O)CO)O1 [TA, triamcinolone acetonide] | – | – | – | – | – | – | – | – | – | 4.09 ng/g | –
3-Aminopropyl Cinnamate-Introduced HA [HA-CIN-conjugate, reference compound] | 0.00% | 0.00% | 0.00% | 0.00% | 0.00% | 0.00% | 0.00% | 0.00% | 0.00%/day | – | release of cinnamic acid was not observed
β-alanyl-hydroxyzine-introduced CS [CS-HYD-conjugate] | 0.00% | 0.65% | 1.48% | 2.38% | 3.35% | 4.30% | 5.24% | 6.05% | 0.89%/day | – | –
2-Aminoethyl-Probenecid-Introduced CS [CS-PRO-conjugate] | 0.31% | 0.83% | 1.43% | 2.13% | 2.91% | 3.63% | 4.56% | 5.29% | 0.72%/day | – | –
2-Aminoethyl-Dehydrocholate-Introduced CS [CS-DEH-conjugate] | 0.45% | 0.53% | 0.52% | 0.66% | 0.65% | 0.78% | 1.29% | 1.42% | 0.14%/day | – | –
